Assay results published in PMC5680807 (mAbs, 2017).

Each molecule was assayed against basic species of AFD (VL Asp-30 isomerized to the cyclic intermediate form) (assay: not given).

human complement factor D (CFD) (from UniProt P00746 26-253) (enzyme), sequence (P00746 26-253): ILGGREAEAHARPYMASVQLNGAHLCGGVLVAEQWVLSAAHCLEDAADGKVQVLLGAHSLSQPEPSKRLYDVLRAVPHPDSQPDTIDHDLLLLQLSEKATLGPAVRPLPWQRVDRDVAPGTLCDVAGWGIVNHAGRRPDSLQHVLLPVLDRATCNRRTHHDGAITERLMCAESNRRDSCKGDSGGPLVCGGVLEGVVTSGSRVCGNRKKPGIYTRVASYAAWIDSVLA

fold decrease in CFD-binding affinity against AFD	Molecule
2 fold	human complement factor D (CFD) (from UniProt P00746 26-253) (enzyme)

These molecules were tested against human complement factor D (CFD) (Homo sapiens, UniProt P00746) (assay: SPR).

Kd	Molecule
30 pM	AFD.v9 (Fab, V domains shown) VH: EVQLVQSGPELKKPGASVKVSCKASGYTFTNYGMNWVRQAPGQGLEWMGWINTYTGETTYAEDFKGRFVFSLDTSVSTAYLQISSLKAEDTAVYYCEREGGVNNWGQGTLVTVSS VL: DIQVTQSPSSLSASVGDRVTITCITSTSIESDMSWYQQKPGKVPKLLISGGNTLRPGVPSRFSGSGSGTDFTLTISSLQPEDVATYYCLQSDSLPYTFGQGTKVEIK
≤ 10 pM	AFD.v2 (Fab, V domains shown) VH: EVQLVQSGPELKKPGASVKVSCKASGYTFTNYGMNWVRQAPGQGLEWMGWINTYTGETTYADDFKGRFVFSLDTSVSTAYLQISSLKAEDTAVYYCEREGGVNNWGQGTLVTVSS VL: DIQVTQSPSSLSASVGDRVTITCITSTDIEDDMNWYQQKPGKVPKLLISGGNTLRPGVPSRFSGSGSGTDFTLTISSLQPEDVATYYCLQSDSLPYTFGQGTKVEIK
≤ 10 pM	AFD.v1 (Fab, V domains shown) VH: EVQLVQSGPELKKPGASVKVSCKASGYTFTNYGMNWVRQAPGQGLEWMGWINTYTGETTYADDFKGRFVFSLDTSVSTAYLQISSLKAEDTAVYYCEREGGVNNWGQGTLVTVSS VL: DIQVTQSPSSLSASVGDRVTITCITSTSIDDDMNWYQQKPGKVPKLLISGGNTLRPGVPSRFSGSGSGTDFTLTISSLQPEDVATYYCLQSDSLPYTFGQGTKVEIK
25.6 ± 6.3 pM	AFD.v14 (Fab, V domains shown) VH: EVQLVQSGPELKKPGASVKVSCKASGYTFTNYGMNWVRQAPGQGLEWMGWINTYTGETTYAEDFKGRFVFSLDTSVSTAYLQISSLKAEDTAVYYCEREGGVSNWGQGTLVTVSS VL: DIQVTQSPSSLSASVGDRVTITCITSTSIESDMNWYQQKPGKVPKLLISGGNTLRPGVPSRFSGSGSGTDFTLTISSLQPEDVATYYCLQSDSLPYTFGQGTKVEIK
≤ 10 pM	AFD.v3 (Fab, V domains shown) VH: EVQLVQSGPELKKPGASVKVSCKASGYTFTNYGMNWVRQAPGQGLEWMGWINTYTGETTYADDFKGRFVFSLDTSVSTAYLQISSLKAEDTAVYYCEREGGVNNWGQGTLVTVSS VL: DIQVTQSPSSLSASVGDRVTITCITSTDIDSDMNWYQQKPGKVPKLLISGGNTLRPGVPSRFSGSGSGTDFTLTISSLQPEDVATYYCLQSDSLPYTFGQGTKVEIK
≤ 10 pM	AFD.v7 (Fab, V domains shown) VH: EVQLVQSGPELKKPGASVKVSCKASGYTFTNYGMNWVRQAPGQGLEWMGWINTYTGETTYAEDFKGRFVFSLDTSVSTAYLQISSLKAEDTAVYYCEREGGVNNWGQGTLVTVSS VL: DIQVTQSPSSLSASVGDRVTITCITSTDIESDMNWYQQKPGKVPKLLISGGNTLRPGVPSRFSGSGSGTDFTLTISSLQPEDVATYYCLQSESLPYTFGQGTKVEIK
16.7 ± 4.4 pM	AFD.v8 (Fab, V domains shown) VH: EVQLVQSGPELKKPGASVKVSCKASGYTFTNYGMNWVRQAPGQGLEWMGWINTYTGETTYAEDFKGRFVFSLDTSVSTAYLQISSLKAEDTAVYYCEREGGVNNWGQGTLVTVSS VL: DIQVTQSPSSLSASVGDRVTITCITSTSIESDMNWYQQKPGKVPKLLISGGNTLRPGVPSRFSGSGSGTDFTLTISSLQPEDVATYYCLQSDSLPYTFGQGTKVEIK
≤ 10 pM	AFD.v6 (Fab, V domains shown) VH: EVQLVQSGPELKKPGASVKVSCKASGYTFTNYGMNWVRQAPGQGLEWMGWINTYTGETTYAEDFKGRFVFSLDTSVSTAYLQISSLKAEDTAVYYCEREGGVNNWGQGTLVTVSS VL: DIQVTQSPSSLSASVGDRVTITCITSTDIESDMNWYQQKPGKVPKLLISGGNTLRPGVPSRFSGSGSGTDFTLTISSLQPEDVATYYCLQSDSLPYTFGQGTKVEIK
26 pM	AFD.v4 (Fab, V domains shown) VH: EVQLVQSGPELKKPGASVKVSCKASGYTFTNYGMNWVRQAPGQGLEWMGWINTYTGETTYADDFKGRFVFSLDTSVSTAYLQISSLKAEDTAVYYCEREGGVNNWGQGTLVTVSS VL: DIQVTQSPSSLSASVGDRVTITCITSTDIDDSMNWYQQKPGKVPKLLISGGNTLRPGVPSRFSGSGSGTDFTLTISSLQPEDVATYYCLQSDSLPYTFGQGTKVEIK
280 pM	AFD.v5 (Fab, V domains shown) VH: EVQLVQSGPELKKPGASVKVSCKASGYTFTNYGMNWVRQAPGQGLEWMGWINTYTGETTYADDFKGRFVFSLDTSVSTAYLQISSLKAEDTAVYYCEREGGVNNWGQGTLVTVSS VL: DIQVTQSPSSLSASVGDRVTITCITSTSIDSSMNWYQQKPGKVPKLLISGGNTLRPGVPSRFSGSGSGTDFTLTISSLQPEDVATYYCLQSDSLPYTFGQGTKVEIK
